Test [1] deals with SCD Tg mice. The test is described as follows: Plasma adenosine levels in SCD Tg mice under weekly PEG-ADA. The class given is in vivo, mouse. The conditions noted are these: weekly injection 2.5 U/week for 8 weeks. The method, then: Adenosine Analysis. […] B., et al. Effects of (R)-deoxycoformycin (pentostatin) on intrauterine nucleoside catabolism and embryo viability in the pregnant mouse. Teratology 45, 91-103, 1992) with modifications. In brief, 500 μl of 0.6 M cold perchloric acid was added to 500 μl blood on ice, mixed using a vertex mixer and subsequently subject to sonication for 10 seconds with output 6 (W-220F, Heat Systems-Ultrasonic, Inc.). The homogenate was centrifuged at 20,000 g for 10 min at […]. The supernatant (568 μl) was transferred to a new tube and neutralized with 40.9 μl 3 M KHCO3/3.6 N KOH. Phenol red (2 μl of 0.2 mg/ml) was added as indicator. The sample was acidified with 5.7 μl of 1.8 M ammonium dihydrogen phosphate (pH 5.1) and 13.2 μl phosphoric acid (30%). Finally, the sample was centrifuged at 20,000 g for 5 min and the supernatant was transferred to a new tube and stored at −20° C. Before HPLC assay, the sample was thawed on ice, then centrifuged at 20,000 g for 10 minutes. […]

Test [2] relates to SCD Tg mice. As to the kind of experiment: Hypoxia/reoxygenation-induced acute sickle crisis in SCD Tg mice with PEG-ADA pretreatment. The class given is in vivo, mouse. The method, then:
Adenosine Analysis. The adenosine concentration present in whole blood was measured by HPLC as previously described (Knudsen, T. B., et al. Effects of (R)-deoxycoformycin (pentostatin) on intrauterine nucleoside catabolism and embryo viability in the pregnant mouse. Teratology 45, 91-103, 1992) with modifications. In brief, 500 μl of 0.6 M cold perchloric acid was added to 500 μl blood on ice, mixed using a vertex mixer and subsequently subject to sonication for 10 seconds with output 6 (W-220F, Heat Systems-Ultrasonic, Inc.). The homogenate was centrifuged at 20,000 g for 10 min at […]. The supernatant (568 μl) was transferred to a new tube and neutralized with 40.9 μl 3 M KHCO3/3.6 N KOH. Phenol red (2 μl of 0.2 mg/ml) was added as indicator. The sample was acidified with 5.7 μl of 1.8 M ammonium dihydrogen phosphate (pH 5.1) and 13.2 μl phosphoric acid (30%). Finally, the sample was centrifuged at 20,000 g for 5 min and the supernatant was transferred to a new tube and stored at −20° C. Before HPLC assay, the sample was thawed on ice, then centrifuged at 20,000 g for 10 minutes. The supernatant was transferred to a new tube for HPLC analysis as described previously (Aldrich, et al. Adenosine deaminase-deficient mice: models for the study of lymphocyte development and adenosine signaling. Adv Exp Med. Biol. 2000; 486, 57-63; Blackburn, et al. Metabolic and immunologic consequences of limited adenosine deaminase expression in mice. The Journal of Biological Chemistry. 1996; 271(25):15203-15210). Plasma adenosine measurements were performed as with whole blood, except the sonication step was omitted. Adenosine content was normalized to volume.
Hypoxia/reoxygenation of SCD Tg mice. SCD Tg mice were subjected to two-hour hypoxic condition with 8% oxygen. After hypoxia, mice were returned to normoxic conditions for four hours Wallace, et al. NKT cells mediate pulmonary inflammation and dysfunction in murine sickle cell disease through production of IFN-gamma and CXCR3 chemokines. Blood. 2009; 114(3):667-676). At the end of the experiments, mice were sacrificed and blood collected for adenosine measurement, sickling and hemolytic analysis.
Morphological study of erythrocytes and quantification of reticulocytes by flow cytometry. Blood smears were stained using the WG16-500 ml kit (Sigma-Aldrich) for sickled cells and observed using 100× oil immersion objective of Olympus BX60 microscope. […] The percentages of sickled cells among the counted cells were calculated. Reticulocyte was labeled by Retic-COUNT Reagent (Becton Dickinson) and quantified by flow cytometry (Perumbeti, et al., A novel human gamma-globin gene vector for genetic correction of sickle cell anemia in a humanized sickle mouse model: critical determinants for successful correction. Blood. 2009; 114(6):1174-1185).
2,3-DPG analysis. 2,3-DPG concentration in RBCs was detected by a commercially available kit (Roche, Nutley, N.J., and as described in Ericson A, de Verdier C H. A modified method for the determination of 2,3-diphosphoglycerate in erythrocytes. Scandinavian journal of clinical and laboratory investigation. 1972; 29(1):84-90).
Hemolytic analysis. The hemoglobin, haptoglobin and total bilirubin in mouse plasma were quantified by ELISA kits following instructions provided by the vendor (BioAssay Systems, Hayword, Calif.).

[3] abbreviates: SCD Tg mice, 2 h hypoxia/4 h reoxygenation, PEG-ADA pretreatment.
The mark [4] stands for this setting: SCD Tg mice, hypoxic/reoxygenation condition.

B1: PEG-ADA: polyethylene glycol-modified adenosine deaminase, a drug used to lower adenosine concentrations in ADA-deficient humans (protein, UniProt P56658 2-363, looked up)
Adenosine deaminase: AQTPAFNKPKVELHVHLDGAIKPETILYYGRKRGIALPADTPEELQNIIGMDKPLSLPEFLAKFDYYMPAIAGCREAVKRIAYEFVEMKAKDGVVYVEVRYSPHLLANSKVEPIPWNQAEGDLTPDEVVSLVNQGLQEGERDFGVKVRSILCCMRHQPSWSSEVVELCKKYREQTVVAIDLAGDETIEGSSLFPGHVKAYAEAVKSGVHRTVHAGEVGSANVVKEAVDTLKTERLGHGYHTLEDATLYNRLRQENMHFEVCPWSSYLTGAWKPDTEHPVVRFKNDQVNYSLNTDDPLIFKSTLDTDYQMTKNEMGFTEEEFKRLNINAAKSSFLPEDEKKELLDLLYKAYGMPSPASAEQCL
modifications: PEGylated
In the case of B1, in test [1], the “Adenosine levels in the plasma at different time points” value was “lowered adenosine to a steady level within two weeks”. In addition, the “2,3-DPG elevation by hypoxia/reoxygenation” value in test [2] (SCD Tg mice RBCs, PEG-ADA pretreatment) was “significantly inhibited its elevation”. In test [2] (setting [3]), the plasma adenosine levels entry was “significantly lowered”, the plasma hemoglobin entry was “decreased”, the plasma total bilirubin entry is listed as “decreased” and the sickling entry was “reduced”. In addition, in test [2] (setting [4]), the HCT was found to be 21.25 ± 2.52 %, the Hb was determined as 4.58 ± 0.38 g/dL, the MCH is 9.12 ± 0.72 pg and the MCHC was found to be 18.65 ± 1.82 g/dL. Besides, in test [2] (setting [4]), the MCV is 48.93 ± 2.05 fL, the RBC was found to be 4.94 ± 0.17 M/μl, the RDW is listed as 29.72 ± 1.95 % and the WBC amounted to 18.68 ± 3.32 k/μl.

Values taken from patent US20120134979A1, “METHODS AND COMPOSITIONS FOR THE TREATMENT OF SICKLE CELL DISEASE” (priority 2010, published 2012).
